According to article doi:10.1101/2023.01.24.525315 (bioRxiv, 2023):

Assays:
Fly Caf1 wild-type = Fly Caf1 wild-type (fly (Drosophila melanogaster), UniProt Q24572 1-430); assay: pull-down
[1] = molecular target: Caf1 H3 binding pocket mutant (E235Q/D252K/E279Q) (fly (Drosophila melanogaster), UniProt Q24572 1-430, E235Q | D252K | E279Q); assay: pull-down
Chain of Caf1 H3 binding pocket mutant (E235Q/D252K/E279Q) (Q24572 whole entry E235Q/D252K/E279Q): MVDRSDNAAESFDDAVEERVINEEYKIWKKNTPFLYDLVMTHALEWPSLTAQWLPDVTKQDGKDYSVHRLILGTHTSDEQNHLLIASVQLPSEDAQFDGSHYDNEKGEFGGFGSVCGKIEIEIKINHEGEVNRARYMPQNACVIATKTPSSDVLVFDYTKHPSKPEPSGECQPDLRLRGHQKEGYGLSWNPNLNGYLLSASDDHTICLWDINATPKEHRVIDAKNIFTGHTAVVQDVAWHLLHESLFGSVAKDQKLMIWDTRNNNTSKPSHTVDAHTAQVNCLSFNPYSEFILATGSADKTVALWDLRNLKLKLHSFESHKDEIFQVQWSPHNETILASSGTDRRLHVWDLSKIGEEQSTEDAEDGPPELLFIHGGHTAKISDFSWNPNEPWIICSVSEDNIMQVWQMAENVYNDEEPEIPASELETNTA

Chain of Fly Caf1 wild-type (Q24572 whole entry): as the sequence (Q24572 whole entry E235Q/D252K/E279Q) above, with Q235E, K252D, Q279E counted along it

binding result (Fly Caf1 wild-type): binds
binding result [1]: binds
B1: GST-CBM (Caf1-binding-motif, Ash1 1,582-1,616) (domain or fragment, fly (Drosophila melanogaster), UniProt Q9VW15 1582-1616, looked up)
chain: AKLQPLSEKEKKLVRQFNTFLVRNFEKIRRCKAKR
